From paper PMC12615753, “Glutathione as a taste modulator: molecular mechanisms of interaction with umami and sweet taste receptors” (Food Chemistry: Molecular Sciences, 2025)
Like-named read-outs stand apart in the source and are kept apart here. Each block holds one compound with its values, some of them ahead of it.

Columns and labels:
[1] = target: T1, hTAS1R1/rTAS1R3 (UniProt Q7RTX1+Q923K1); test: Calcium assay (GCaMP6s, Gα15i2) in transiently transfected HEK293T/17 cells; assay type: cell-based, human, rat
T1 construct: UniProtKB number Q7RTX1–1); The cDNA coding region of rTAS1R3 was synthesized with optimized-codon usage for human expression; expressed in transfected cells; host or cells: HEK293T/17 (ATCC CRL-11268)
T1 sequence (Q7RTX1 21-841): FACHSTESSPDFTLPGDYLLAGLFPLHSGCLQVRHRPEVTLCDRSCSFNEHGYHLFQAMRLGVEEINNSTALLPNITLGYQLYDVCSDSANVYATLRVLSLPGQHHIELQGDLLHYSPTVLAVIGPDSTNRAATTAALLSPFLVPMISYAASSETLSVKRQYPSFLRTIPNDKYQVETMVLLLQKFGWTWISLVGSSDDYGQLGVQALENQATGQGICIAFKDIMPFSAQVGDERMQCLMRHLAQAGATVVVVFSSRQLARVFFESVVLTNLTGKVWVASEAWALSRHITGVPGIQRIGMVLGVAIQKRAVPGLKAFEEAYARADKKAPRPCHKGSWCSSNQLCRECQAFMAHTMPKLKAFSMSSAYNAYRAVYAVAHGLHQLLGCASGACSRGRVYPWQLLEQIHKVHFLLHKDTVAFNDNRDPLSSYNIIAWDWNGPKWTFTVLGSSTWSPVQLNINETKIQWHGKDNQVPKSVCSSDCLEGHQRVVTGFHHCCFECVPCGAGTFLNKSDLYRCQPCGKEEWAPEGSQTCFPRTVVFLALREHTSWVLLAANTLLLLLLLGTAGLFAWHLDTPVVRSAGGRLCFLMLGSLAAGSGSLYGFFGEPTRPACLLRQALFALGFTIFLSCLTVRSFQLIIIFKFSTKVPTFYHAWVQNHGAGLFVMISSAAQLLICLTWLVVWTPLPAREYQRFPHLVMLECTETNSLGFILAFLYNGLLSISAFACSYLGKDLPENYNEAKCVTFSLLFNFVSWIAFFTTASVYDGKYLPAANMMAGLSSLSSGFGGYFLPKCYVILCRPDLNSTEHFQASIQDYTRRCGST
T1 sequence (Q923K1 21-858): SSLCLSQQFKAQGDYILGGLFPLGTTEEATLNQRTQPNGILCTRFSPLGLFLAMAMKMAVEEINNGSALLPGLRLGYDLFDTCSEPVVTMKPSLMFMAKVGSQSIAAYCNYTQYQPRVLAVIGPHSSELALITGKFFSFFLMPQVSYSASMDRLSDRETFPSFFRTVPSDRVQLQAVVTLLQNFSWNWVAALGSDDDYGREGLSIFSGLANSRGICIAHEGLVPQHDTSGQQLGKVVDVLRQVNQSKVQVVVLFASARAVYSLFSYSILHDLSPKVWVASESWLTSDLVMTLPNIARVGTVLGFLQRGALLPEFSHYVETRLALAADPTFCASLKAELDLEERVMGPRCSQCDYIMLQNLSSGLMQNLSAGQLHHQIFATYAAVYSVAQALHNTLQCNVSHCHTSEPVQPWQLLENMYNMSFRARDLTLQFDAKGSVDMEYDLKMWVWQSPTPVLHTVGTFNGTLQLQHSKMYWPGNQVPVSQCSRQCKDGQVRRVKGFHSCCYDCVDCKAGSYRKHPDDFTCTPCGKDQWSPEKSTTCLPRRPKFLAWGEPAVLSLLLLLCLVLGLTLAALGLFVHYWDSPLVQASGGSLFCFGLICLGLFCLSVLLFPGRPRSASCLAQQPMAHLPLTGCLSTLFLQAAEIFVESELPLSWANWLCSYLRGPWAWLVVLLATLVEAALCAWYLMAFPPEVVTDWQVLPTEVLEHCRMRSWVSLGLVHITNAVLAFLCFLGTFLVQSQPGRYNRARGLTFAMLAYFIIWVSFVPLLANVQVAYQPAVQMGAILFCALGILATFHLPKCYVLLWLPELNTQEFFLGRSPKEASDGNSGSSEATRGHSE
Description: To this end, hTAS1R1/rTAS1R3 and the chimeric G protein Gα15i2 were transiently expressed in HEK293T cells. Cellular responses were assessed via calcium imaging using a fluorescent protein calcium biosensor (GCaMP6s) and compared with those of mock-transfected cells.

[2] = test system: umami perception; conditions: ref Shigemura et al., 2009, cited from earlier work
[3] = target: hTAS1R1/rTAS1R3 umami taste receptor (wild type) (human | rat) (UniProt Q7RTX1)
[4] = target: hTAS1R2/hTAS1R3 sweet taste receptor (human) (UniProt Q8TE23)
Chain of hTAS1R2/hTAS1R3 sweet taste receptor (human) (Q8TE23 20-839, chain 1 of 2): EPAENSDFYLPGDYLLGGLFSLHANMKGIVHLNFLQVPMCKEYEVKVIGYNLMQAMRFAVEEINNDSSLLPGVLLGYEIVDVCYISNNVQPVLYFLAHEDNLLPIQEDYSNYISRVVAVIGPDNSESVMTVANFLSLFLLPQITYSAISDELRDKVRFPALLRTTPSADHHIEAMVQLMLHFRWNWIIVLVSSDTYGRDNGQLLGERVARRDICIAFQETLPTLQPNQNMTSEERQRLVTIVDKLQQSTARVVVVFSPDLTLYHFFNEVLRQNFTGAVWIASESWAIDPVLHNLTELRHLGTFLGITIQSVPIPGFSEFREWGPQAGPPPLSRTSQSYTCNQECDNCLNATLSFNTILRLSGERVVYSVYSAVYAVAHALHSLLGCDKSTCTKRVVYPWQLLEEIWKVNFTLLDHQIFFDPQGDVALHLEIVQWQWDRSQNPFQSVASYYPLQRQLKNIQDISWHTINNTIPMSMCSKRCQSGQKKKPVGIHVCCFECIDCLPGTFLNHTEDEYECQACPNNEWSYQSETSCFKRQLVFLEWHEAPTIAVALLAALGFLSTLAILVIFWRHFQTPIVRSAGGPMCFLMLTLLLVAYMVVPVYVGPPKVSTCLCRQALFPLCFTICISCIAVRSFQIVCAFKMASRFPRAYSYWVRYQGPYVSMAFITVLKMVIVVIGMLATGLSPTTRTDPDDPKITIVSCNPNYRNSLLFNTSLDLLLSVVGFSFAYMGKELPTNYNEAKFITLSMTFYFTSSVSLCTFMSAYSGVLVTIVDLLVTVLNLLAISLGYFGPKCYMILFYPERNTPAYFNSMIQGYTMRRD
Chain of hTAS1R2/hTAS1R3 sweet taste receptor (human) (Q7RTX0 21-852, chain 2 of 2, further chain): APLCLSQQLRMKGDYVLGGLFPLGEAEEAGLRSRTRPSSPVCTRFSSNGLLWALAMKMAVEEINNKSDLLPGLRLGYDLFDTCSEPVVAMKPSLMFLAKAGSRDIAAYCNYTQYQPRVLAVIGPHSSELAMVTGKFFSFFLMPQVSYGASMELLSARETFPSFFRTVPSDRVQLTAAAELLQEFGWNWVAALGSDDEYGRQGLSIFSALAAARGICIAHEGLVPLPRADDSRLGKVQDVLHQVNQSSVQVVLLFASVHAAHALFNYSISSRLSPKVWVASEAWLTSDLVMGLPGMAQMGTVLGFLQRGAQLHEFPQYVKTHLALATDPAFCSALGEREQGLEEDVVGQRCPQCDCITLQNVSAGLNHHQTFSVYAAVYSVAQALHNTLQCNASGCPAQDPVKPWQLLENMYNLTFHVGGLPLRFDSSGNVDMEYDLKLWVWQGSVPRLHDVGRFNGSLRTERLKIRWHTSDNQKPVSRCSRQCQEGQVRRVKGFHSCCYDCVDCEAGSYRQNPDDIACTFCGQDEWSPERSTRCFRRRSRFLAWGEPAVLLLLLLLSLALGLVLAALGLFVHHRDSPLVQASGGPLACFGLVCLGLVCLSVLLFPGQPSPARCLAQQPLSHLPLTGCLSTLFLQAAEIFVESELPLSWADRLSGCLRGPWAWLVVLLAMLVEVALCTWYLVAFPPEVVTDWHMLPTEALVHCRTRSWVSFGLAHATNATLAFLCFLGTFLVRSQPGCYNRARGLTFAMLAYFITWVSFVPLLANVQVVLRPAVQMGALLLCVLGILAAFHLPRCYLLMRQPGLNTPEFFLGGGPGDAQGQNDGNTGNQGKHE

[5] = target: hTAS1R2/rTAS1R3 sweet taste receptor (human | rat) (UniProt Q8TE23)
Chain of hTAS1R2/rTAS1R3 sweet taste receptor (human | rat) (Q8TE23 20-839): as the sequence (Q8TE23 20-839, chain 1 of 2) above

[6] = target: hTAS1R1 subunit expressed alone (human) (UniProt Q7RTX1)
[7] = target: hTAS1R1(A302W)/rTAS1R3 (human | rat) (UniProt Q7RTX1)
[8] = target: hTAS1R1(H71A)/rTAS1R3 (human | rat) (UniProt Q7RTX1)
[9] = target: hTAS1R1(H71L)/rTAS1R3 (human | rat) (UniProt Q7RTX1)
[10] = target: hTAS1R1(A170W)/rTAS1R3 (human | rat) (UniProt Q7RTX1)
[11] = target: hTAS1R1(D192A)/rTAS1R3 (human | rat) (UniProt Q7RTX1)
[12] = target: hTAS1R1(Q278Y)/rTAS1R3 (human | rat) (UniProt Q7RTX1)
[13] = target: hTAS1R1(H308A)/rTAS1R3 (human | rat) (UniProt Q7RTX1)
[14] = target: hTAS1R1/rTAS1R3 umami taste receptor (wild type) (human | rat) (UniProt Q7RTX1); remark: listed apart in the source
[15] = target: hTAS1R1(Q278K)/rTAS1R3 (human | rat) (UniProt Q7RTX1)
[16] = target: hTAS1R1(R277A)/rTAS1R3 (human | rat) (UniProt Q7RTX1)
[17] = target: hTAS1R1(Q278A)/rTAS1R3 (human | rat) (UniProt Q7RTX1)
[18] = target: hTAS1R1(R151A)/rTAS1R3 (human | rat) (UniProt Q7RTX1)
[19] = target: hTAS1R1(L223A)/rTAS1R3 (human | rat) (UniProt Q7RTX1)

Compound: Nc1nc2c(ncn2[C@@H]2O[C@H](COP(=O)(O)O)[C@@H](O)[C@H]2O)c(=O)[nH]1 [GMP, guanosine 5′-monophosphate, reference compound]
- effect of the added 5′-ribonucleotide on the response to GSH ([1]; Fig. 6C–D): did not significantly increase
- activation of the receptor ([1]; compound alone): did not activate

Compound: N[C@@H](CCC(=O)N[C@@H](CS)C(=O)O)C(=O)O [Glu-Cys, γ-L-Glutamyl-L-cysteine]
- EC50 ([1]; agonist alone, Fig. 1, Fig. S2): 3.2 ± 1.54 mM
- max ∆F/F0 ([1]; agonist alone, Fig. 1, Fig. S2): 0.42 ± 0.07

Compound: N[C@@H](CCC(=O)O)C(=O)[O-].[Na+] [MSG, monosodium glutamate]
- sensory recognition threshold ([2]; MSG alone): 7.66 mM
- sensory recognition threshold ([2]; in the presence of 0.05 mM IMP): 0.20 mM

Continued, values first:

- EC50 of GSH, calcium response (GCaMP6s fluorescence) of transfected HEK293T cells [3]: 2.15 mM
- EC50 of GSH, calcium response of cells expressing the sweet taste receptor [4]: 0.591 mM
- EC50 of GSH, calcium response of cells expressing the sweet taste receptor [5]: 4.06 mM
- EC50 of GSH in the presence of 0.1 μM S807, calcium response of HEK293 cells expressing hTAS1R1 alone [6]: 0.281 mM
- EC50 of GSH, calcium response of transfected HEK293 cells [7]: 5.32 mM
- EC50 of GSH, calcium response of transfected HEK293 cells [8]: 2.03 mM
- EC50 of GSH, calcium response of transfected HEK293 cells [9]: 2.27 mM
- EC50 of GSH, calcium response of transfected HEK293 cells [10]: 5.29 mM
- EC50 of GSH, calcium response of transfected HEK293 cells [11]: 3.25 mM
- EC50 of GSH, calcium response of transfected HEK293 cells [12]: 3.96 mM
- EC50 of GSH, calcium response of transfected HEK293 cells [13]: 3.25 mM
- EC50 of GSH, calcium response of transfected HEK293 cells (mutant series) [14]: 2.52 mM
- EC50 of GSH, calcium response of transfected HEK293 cells [15]: 5.66 mM
- EC50 of GSH, calcium response of transfected HEK293 cells [16]: 1.84 mM
- EC50 of GSH, calcium response of transfected HEK293 cells [17]: 3.42 mM
- EC50 of GSH, calcium response of transfected HEK293 cells [18]: 2.59 mM
- EC50 of GSH, calcium response of transfected HEK293 cells [19]: 2.32 mM
Compound: Reduced L-glutathione (γ-L-glutamyl-L-cysteinyl-glycine) (peptide)

- EC50 of Glu-Cys, calcium response (GCaMP6s fluorescence) of transfected HEK293T cells [3]: 3.2 mM
Compound: γ-L-Glutamyl-L-cysteine (peptide)
